Data from paper PMC9321427.

What was measured:
[1] = molecular target: β-arrestin1-YFP (UniProt P49407); assay: BRET (PAR2-Rluc8 / β-arrestin1-YFP) in cells; details: read off a plot
[2] = molecular target: PAR2 peptide 10 (human)

response (ligand induced ΔBRET) ([1]; cells stimulated with GzmK (concentration not given for panel D), parent: est. 0.027) | response (ligand induced ΔBRET) ([1]; cells treated with GzmK-AI (inactive GzmK; concentration not given for panel D), parent: est. -0.001) | cleavage product as percent of total peptide by HPLC after 15 h with granzyme [2] | Molecule
0.0038 | -0.0015 |  | PAR2-Rluc8 (protease-activated receptor 2 fused to Renilla luciferase 8), uncleaved as expressed (from UniProt P55085) Arg36Ala
 |  | 6.6 % of total | Granzyme A (enzyme) IIGGNEVTPHSRPYMVLLSLDRKTICAGALIAKDWVLTAAHCNLNKRSQVILGAHSITREEPTKQIMLVKKEFPYPCYDPATREGDLKLLQLMEKAKINKYVTILHLPKKGDDVKPGTMCQVAGWGRTHNSASWSDTLREVNITIIDRKVCNDRNHYNFNPVIGMNMVCAGSLRGGRDSCNGDSGSPLLCEGVFRGVTSFGLENKCGDPRGPGVYILLSKKHLNWIIMTIKGAV
 |  | 53 % of total | Granzyme K (enzyme) IIGGKEVSPHSRPFMASIQYGGHHVCGGVLIDPQWVLTAAHCQYRFTKGQSPTVVLGAHSLSKNEASKQTLEIKKFIPFSRVTSDPQSNDIMLVKLQTAAKLNKHVKMLHIRSKTSLRSGTKCKVTGWGATDPDSLRPSDTLREVTVTVLSRKLCNSQSYYNGDPFITKDMVCAGDAKGQKDSCKGDSGGPLICKGVFHAIVSGGHECGVATKPGIYTLLTKKYQTWIKSNLVPPHTN
